The target of this assay is T1, factor H-binding protein (fHbp) variant 1.1, recombinant (Neisseria meningitidis serogroup B MC58 …, UniProt Q9JXV4).
T1 construct: not shown: His6, C-terminal, kept
Kind of assay: crystal structure. To be noted: both partners purified.

B1: human Fab 1A12 (Fab, V domains shown)
VH: EVQLVQSGAELKKPGESLKISCKASGYTFTNYWVVWVRQMPGEGLEWMGSIHPRDSDARYSLSFEGRVTFSVDKSTTTAYLQWSSLKVSDSAIYYCARLSQVSGWSPWVGPWGQGTLVTVSS
VL: DIVMTQSPSSLSASVGDRVTITCRASQSISVSLNWYQQKPGKAPKVLIYAASRLQSGIPSRFSGSGSGSHFTLTISSLQPEDFATYYCQETYSDLMYTFGQGTKVEIK
As for B1, the binding result was “binds”.
